Measurements: patent US6025146A, “Identification of M-CSF agonists and antagonists” (Chiron Corporation, priority 1995, dated 2000)
Where a chain is given by its changes, count along the chain named. Names and notes keep the numbering of the source.

B1: Chinese hamster ovary cell (CHO)-expressed M-CSF: "naturally refolded" M-CSF expressed in Chinese hamster ovary cells (protein, UniProt P09603 33-554, looked up)
Macrophage colony-stimulating …: EEVSEYCSHMIGSGHLQSLQRLIDSQMETSCQITFEFVDQEQLKDPVCYLKKAFLLVQDIMEDTMRFRDNTPNAIAIVQLQELSLRLKSCFTKDYEEHDKACVRTFYETPLQLLEKVKNVFNETKNLLDKDWNIFSKNCNNSFAECSSQDVVTKPDCNCLYPKAIPSSDPASVSPHQPLAPSMAPVAGLTWEDSEGTEGSSLLPGEQPLHTVDPGSAKQRPPRSTCQSFEPPETPVVKDSTIGGSPQPRPSVGAFNPGMEDILDSAMGTNWVPEEASGEASEIPVPQGTELSPSRPGGGSMQTEPARPSNFLSASSPLPASAKGQQPADVTGTALPRVGPVRPTGQDWNHTPQKTDHPSALLRDPPEPGSPRISSLRPQGLSNPSTLSAQPQLSRSHSSGSVLPLGELEGRRSTRDRRSPAEPEGGPASEGAARPLPRFNSVPLTDTGHERQSEGSFSPQLQESVFHLLVPSVILVLLAVGGLLFYRWRRRSHQEPQRADSPLEQPEGSPLTQDDRQVELPV
B2: Q20A, V78K: double mutant of M-CSF altering solvent accessible residues in the central portion of helices A and C (protein, UniProt P09603 33-554, looked up, variant Q20A V78K)
Macrophage colony-stimulating …: B1 Macrophage colony-stimulating … with Q20A, V78K

Experiments:
NFS-60 cells [1] = test: Antibody neutralization of M-CSF dimers by 5H410 Mab in the NFS-60 bioassay; type: cell-based; conditions: serial dilution neutralization experiments
Protocol: Fractionated products were analyzed on reducing SDS-PAGE and stained with Coomassie, according to the method of Laemmli, Nature […] 227:680-685 (1970). Biological activity was determined using the M-CSF dependent NFS-60 bioassay (See Example 10 below). Antibody neutralization experiments were carried out by pre-incubating approximately 5,000 units of M-CSF dimer with varying dilutions of the neutralizing M-CSF 5H410 Mab (made to refolded E. coli CΔ 150 M-CSFα dimer) prior to bioassay. (Halenbeck et al, Bio/Technology 7:710 (1989)
The biological activity of all three dimer species was neutralized to the same extent in serial dilution neutralization experiments using the 5H410 M-CSF Mab in the NFS-60 bioassay.

NFS-60 cells [2] = test: M-CSF dependent NFS-60 bioassay (MTT read-out); type: cell-based
Protocol: Fractionated products were analyzed on reducing SDS-PAGE and stained with Coomassie, according to the method of Laemmli, Nature […] 227:680-685 (1970). Biological activity was determined using the M-CSF dependent NFS-60 bioassay (See Example 10 below). […] (Halenbeck et al, Bio/Technology 7:710 (1989)
The purified mutein dimers were subjected to bioassay using NFS-60 cells which is an M-CSF dependent cell line which forms colonies in the presence of active M-CSF. Standards and purified mutein samples were serially diluted 1:2 in RPMI media (10% fetal bovine serum) in a 50 microliter volume in 96-well microtiter plates. […] Plates were incubated at 37° C., 5% CO2 for 44 h. 5 mg/ml MTT dye was added to each sample and incubation continued for 4 h. 20% SDS was added to each sample. The plates were wrapped in foil and left overnight. The absorbance of each sample was read at 570 nm and compared to a standard of known M-CSF concentration.

[3] = system: cell surface M-CSF receptor (NFS60 cell M-CSF receptors); test: NFS-60 receptor competition assay: displacement of 125I-M-CSF by radioligand displacement; type: binding
Protocol: FIG. 7 illustrates the competitive binding of M-CSF and M-CSF muteins to NFS60 cell M-CSF receptors.
The plates were incubated at 4° C. for 20 hours and the cells were collected on glass-fiber filters. Maximum binding was measured in the absence of unlabeled M-CSF and non-specific binding was measured in the presence of 1000-fold greater concentration of unlabeled M-CSF (compared to labeled M-CSF). […] Results are expressed as percent displacement of radioactive M-CSF versus mutein concentration (FIG. 7).

Molecule	neutralization of biological activity by 5H410 M-CSF Mab (NFS-60 cells [1])	specific activity (NFS-60 cells [2]; purified refolded dimers, compared to a standard of known M-CSF concentration)	fold reduction in biological (specific) activity compared to parental M-CSF (NFS-60 cells [2]; relative to parental reference (homodimer or heterodimer))	M-CSF receptor-binding ability (in words) [3]	fold increase in IC50 / decrease in binding affinity compared to M-CSFα NΔ3CΔ158 ([3]; relative to IC50 of about 17 pM for 158)
B1	neutralizes	–	–	–	–
B2	–	1.4×10^7 U/mg	8-10 fold	decreased	5 fold
